Source: patent US20240197872A1

Target: CD20 on CD20-positive human lymphoma cell lines Raji and Daudi (human) (UniProt P11836)
Experiment: cell-based or functional assay

UniProt P11836, sequence (P11836 whole entry): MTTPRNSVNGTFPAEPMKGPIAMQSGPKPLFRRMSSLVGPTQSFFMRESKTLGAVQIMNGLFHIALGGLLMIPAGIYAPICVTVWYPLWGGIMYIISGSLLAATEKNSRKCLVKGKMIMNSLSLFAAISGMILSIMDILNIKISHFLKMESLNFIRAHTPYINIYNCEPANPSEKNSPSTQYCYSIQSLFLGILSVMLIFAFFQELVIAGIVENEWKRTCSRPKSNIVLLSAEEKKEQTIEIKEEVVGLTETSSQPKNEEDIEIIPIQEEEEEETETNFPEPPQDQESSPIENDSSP

percentage of lysed target cells, Daudi, E:T 2:1 (Ctrl-gdT cells without rituximab: 19.68%): 41.2%
percentage of lysed target cells, Daudi, E:T 10:1 (Ctrl-gdT cells without rituximab: 43.66%): 71.2%
percentage of lysed target cells, Raji, E:T 10:1 (Ctrl-gdT cells without rituximab: 43.13%): 69.4%
Substance: rituximab (commercially available anti-CD20 antibody, Rituxan), conjugated to an ssDNA linker and hybridised to the surface of gdT cells (ACE-gdT-CD20 cells)
